Measured values from patent publication US20200024357A1 (published 2020).

Target: T1, human CD39 (vascular CD39, NTPDase1, ENTPD1) expressed at the cell surface (human, UniProt P49961 1-510)
T1 construct: also called huCD39; CHO-huCD39
T1 sequence: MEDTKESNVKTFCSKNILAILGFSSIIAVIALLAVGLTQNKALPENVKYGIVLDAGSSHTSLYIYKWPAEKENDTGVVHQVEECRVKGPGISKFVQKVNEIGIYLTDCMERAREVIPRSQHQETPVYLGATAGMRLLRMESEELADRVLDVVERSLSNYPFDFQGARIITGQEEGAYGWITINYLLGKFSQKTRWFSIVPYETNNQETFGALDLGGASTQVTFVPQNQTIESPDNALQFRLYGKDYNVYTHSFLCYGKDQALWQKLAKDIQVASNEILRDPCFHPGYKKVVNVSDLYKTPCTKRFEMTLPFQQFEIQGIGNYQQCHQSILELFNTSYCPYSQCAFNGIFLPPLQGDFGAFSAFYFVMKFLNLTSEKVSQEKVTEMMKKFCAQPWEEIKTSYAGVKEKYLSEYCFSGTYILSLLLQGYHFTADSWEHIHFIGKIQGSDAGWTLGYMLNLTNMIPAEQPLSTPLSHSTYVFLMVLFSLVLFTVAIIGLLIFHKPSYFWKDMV
Assay: flow cytometry on CHO cells expressing human CD39
Experimental: Cells were incubated with various concentration of unlabeled anti-CD39 antibody from 30 μg/ml to 5×10-⁴ μg/ml, for 30 minutes at 4° C. After washes, cells were incubated with Goat anti-mouse H+L labeled secondary antibody for 30 min at 4° C.
Antibodies mAb1-21 were assessed for binding to CD39 by flow cytometry as described in Example 7, using CHO cells expressing human CD39 and CHO cells expressing cynomolgus (Macaca fascicularis) CD39.

B1: mAb20 H4L1 (antibody, human IgG1, kappa, V domains shown)
VH: QVQLVQSGAEVKKPGASVKVSCKASGYTFTDYNMHWVRQAPGQRLEWIGYIVPLNGGSTFNQKFKGRATITVDTSARTAYMELSSLRSEDTAVYYCARGGTRFAYWGQGTLVTVSS
VL: DIVMTQSPDSLAVSLGERATINCRASESVDNFGVSFMYWFQQKPGQPPKLLIYGASNQGSGVPDRFSGSGSGTDFTLTISSLQAEDVAVYYCQQTKEVPYTFGGGTKVEIKR
notes: The full heavy chain carries L234A/L235E/G237A/A330S/P331S
Does B1 bind?
Result: binds
